# Test results taken from US20240255509A1, “COMPOSITIONS AND METHODS RELATED TO K180 DIMETHYLATED H1.0 PROTEIN” (Aelan Cell Technologies, Inc., priority 2016, published 2024).
# B1: G9A: recombinant G9A methyltransferase (NEB, M0235S) (protein, UniProt Q96KQ7 2-1210, looked up)
# Histone-lysine …: AAAAGAAAAAAAEGEAPAEMGALLLEKETRGATERVHGSLGDTPRSEETLPKATPDSLEPAGPSSPASVTVTVGDEGADTPVGATPLIGDESENLEGDGDLRGGRILLGHATKSFPSSPSKGGSCPSRAKMSMTGAGKSPPSVQSLAMRLLSMPGAQGAAAAGSEPPPATTSPEGQPKVHRARKTMSKPGNGQPPVPEKRPPEIQHFRMSDDVHSLGKVTSDLAKRRKLNSGGGLSEELGSARRSGEVTLTKGDPGSLEEWETVVGDDFSLYYDSYSVDERVDSDSKSEVEALTEQLSEEEEEEEEEEEEEEEEEEEEEEEEDEESGNQSDRSGSSGRRKAKKKWRKDSPWVKPSRKRRKREPPRAKEPRGVNGVGSSGPSEYMEVPLGSLELPSEGTLSPNHAGVSNDTSSLETERGFEELPLCSCRMEAPKIDRISERAGHKCMATESVDGELSGCNAAILKRETMRPSSRVALMVLCETHRARMVKHHCCPGCGYFCTAGTFLECHPDFRVAHRFHKACVSQLNGMVFCPHCGEDASEAQEVTIPRGDGVTPPAGTAAPAPPPLSQDVPGRADTSQPSARMRGHGEPRRPPCDPLADTIDSSGPSLTLPNGGCLSAVGLPLGPGREALEKALVIQESERRKKLRFHPRQLYLSVKQGELQKVILMLLDNLDPNFQSDQQSKRTPLHAAAQKGSVEICHVLLQAGANINAVDKQQRTPLMEAVVNNHLEVARYMVQRGGCVYSKEEDGSTCLHHAAKIGNLEMVSLLLSTGQVDVNAQDSGGWTPIIWAAEHKHIEVIRMLLTRGADVTLTDNEENICLHWASFTGSAAIAEVLLNARCDLHAVNYHGDTPLHIAARESYHDCVLLFLSRGANPELRNKEGDTAWDLTPERSDVWFALQLNRKLRLGVGNRAIRTEKIICRDVARGYENVPIPCVNGVDGEPCPEDYKYISENCETSTMNIDRNITHLQHCTCVDDCSSSNCLCGQLSIRCWYDKDGRLLQEFNKIEPPLIFECNQACSCWRNCKNRVVQSGIKVRLQLYRTAKMGWGVRALQTIPQGTFICEYVGELISDAEADVREDDSYLFDLDNKDGEVYCIDARYYGNISRFINHLCDPNIIPVRVFMLHQDLRFPRIAFFSSRDIRTGEELGFDYGDRFWDIKSKYFTCQCGSEKCKHSAEAIALEQSRLARLDPHPELLPELGSLPPVNT
# Key:
# Format in all cases: biochemical
# [1] = target: T1, H1.0 peptide (Homo sapiens, UniProt P07305); experiment: Radiolabel in vitro methylation assay with G9A; conditions: 10 U G9A, 37° C. 1 hour, autoradiography
# T1 construct: purchased ThermoFisher Scientific (peptide); NEB (G9A) M0235S (G9A)
# Method: In order to visualize methylation of H1.0 peptide by G9A methyltransferase in vitro, a methylation assay was performed incorporating a radiolabelled methyl donor, which allows for visualization of methylated peptide on a gel after autoradiography exposure. The following methylation reaction was set up in a 1.5 ml tube: 1×HMT reaction buffer (50 mM Tris-HCl, 5 mM MgCl2, 4 mM dithiothreitol, pH 9.0), 10 U G9A Methyltransferase (NEB, M0235S, Lot #0031201), 3.2 mM Adenosyl-L-Methionine, S-[Methyl-3H] (Perkin Elmer, NET155H, Lot #1664720), 10 μg H1.0 peptide (ThermoFisher Scientific, Biotin-[…] (SEQ ID NO:75)), final volume 10 μl. A control reaction as above but without H1.0 peptide was also created. Reactions were incubated in a thermocycler at 37° C. for 1 hour. Reactions were stopped by incubating on ice for 5 minutes, and subsequently resolved on a 16.5% Tricine gel (BioRad, 4563063). Gels were soaked in 30% methanol, 5% glycerol for 30 minutes before vacuum drying at RT for 24 hours. Autoradiography analysis of dried gels with a phosphorimager (Molecular Dynamics) was then performed to assess effective methylation of H1.0 peptide with methyl-3H groups by the G9A methyltransferase.
# The methylation reaction was subsequently resolved on a gel and visualized via autoradiography. […] A control reaction lacking H1.0 peptide yielded no tritium-labeled products.
# [2] = target: T2, unmodified H1.0 peptide ([…] (SEQ ID NO:42)) (Homo sapiens, UniProt P07305); experiment: In vitro methylation with G9A, products identified by LC-MS
# T2 construct: purchased ThermoFisher Scientific (peptide); NEB (G9A) M0235S (G9A)
# Method: (§1) In order to identify the precise sites of methylation by G9A and GLP methyltransferases on histone H1.0, in vitro methylation assays were performed and subsequently analyzed by Liquid Chromatography and High-resolution Mass Spectrometry (LC-MS) analysis. Methylation reactions were set up using either G9A methyltransferase (NEB, M0235S, Lot #0031201) or GLP methyltransferase (Cayman Chemical, 10755). The methyl donor in each reaction was unlabeled S-Adenosyl-L-Methionine (NEB, B9003S). […]
# (§2) For the Liquid Chromatography and High-resolution Mass Spectrometry (LC-MS) analysis, samples were prepared as described above and about 1 μg o the product was injected onto a Thermo Scientific Easy nLC system configured with a 10 cm×100 um trap column and a 25 cm×100 um ID resolving column. […] This ensured optimal full-scan data for quantification. […]
# (§3) Protein identification was performed using Thermo Scientific Proteome Discoverer version 1.4 (including Sequest and Percolator algorithms) using RefSeqHuman sequence database. […] Protein quantification was performed using Pinpoint version 1.4 software. The Pinpoint quantification workflow included importing the Proteome Discoverer .msf files as spectral libraries. Identified peptides were subsequently quantified in MS .raw files using the Pinpoint peak finding, chromatographic alignment and area calculation algorithms. […]
# [3] = target: T3, K180me2 peptide (H1.0 AA 165-182) (Homo sapiens, UniProt P07305); experiment: as above; conditions: K180me2 peptide as substrate
# T3 construct: the K180me2 peptide (H1.0 AA 165-182) was used as a substrate; purchased ThermoFisher Scientific (peptide); NEB (G9A) M0235S (G9A)
# Method: In order to identify the precise sites of methylation by G9A and GLP methyltransferases on histone H1.0, in vitro methylation assays were performed and subsequently analyzed by Liquid Chromatography and High-resolution Mass Spectrometry (LC-MS) analysis. Methylation reactions were set up using either G9A methyltransferase (NEB, M0235S, Lot #0031201) or GLP methyltransferase (Cayman Chemical, 10755). The methyl donor in each reaction was unlabeled S-Adenosyl-L-Methionine (NEB, B9003S). The H1.0 substrate in each reaction was either unmodified H1.0 peptide labeled with biotin (ThermoFisher Scientific, Biotin-[…] (SEQ ID NO:75)), di-methylated H1.0 peptide (ThermoFisher Scientific, Biotin-[…]^(me2)PK (SEQ ID NO:76)), or full-length recombinant human H1.0 (NEB, M2501S). Methylation reactions were set up in triplicate for each condition as follows: 1×HMT reaction buffer (50 mM Tris-HCl, 5 mM MgCl2, 4 mM dithiothreitol, pH 9.0); 10 U G9A or GLP Methyltransferase; 3.2 mM S-Adenosyl-L-Methionine; 500 ng unmodified or modified H1.0 peptide, or 1 μg full-length protein; final volume 10 μl. As controls, reactions were set up as above but without any methyltransferase present. […]
# as §2, §3
# [4] = target: T4, recombinant human H1.0 protein (Homo sapiens, UniProt P07305); experiment: as above; conditions: 1 μg full-length protein
# T4 construct: full-length recombinant human H1.0 (NEB, M2501S); purchased NEB M2501S (H1.0); M0235S (G9A)
# Method: as §1, §2, §3
molecule,measurement,setting,value
B1,methylation of H1.0 peptide with tritium-labeled methyl groups (band at 4 kDa),[1],capable of methylating H1.0 peptide
same,"peptides dimethylated at H1.0K180, % of all peptides","[2]; 10 U enzyme, 3.2 mM S-Adenosyl-L-Methionine, 37° C. 1 hour, spectral counts",99.9%
same,estimated methylation efficiency for K180 dimethylation,"[2]; other lysines (K166, K174, K175 or K177) not dimethylated",about 99%
same,"H1.0K166me1K180me2, % of the total peptide in the reaction",[3],1.27%
same,"H1.0K174me1K180me3, % of the total peptide in the reaction",[3],1.06%
same,"H1.0K174me3K175me3K177me1K180me2, % of the total peptide in the reaction",[3],0.35%
same,sites of methylation on full-length H1.0,[4],"methylates C-terminal lysine residues, including H1.0K180me2"
